From the supplement of paper PMC12042874 come the findings set out here.

± gives the uncertainty stated by the source.

A short description of this series: amyloid nucleation score (Sup35N fusion, yeast selection) (log enrichment); library NNK2; higher = more nucleation; inactive = no reads after selection. In a few lines: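 The nucleation score is a DiMSum log enrichment of output over input reads, centred on the mode score of non-aggregating sequences. Sequences under 100 input reads were excluded, and reads came from Illumina sequencing of plasmid inserts. Psi-negative yeast expressing Sup35N fused to peptides of 20 random codons were induced with 100 μM copper sulfate for 24 hours and grown 7 days at 30°C on medium lacking adenine and uracil. Random libraries had three technical output replicates.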
LLMVFHTTKY came in with an amyloid nucleation score of 6.665 ± 0.026. The result for RLWYHVICVDYDGGEYRSSG reads 0.388 ± 0.36. Under DTGSPDGWAQWLPYSEFLGM stands -0.283 ± 0.65. Under KLSSKDHRFYKVSMKRV stands 0.247 ± 0.8; under WGNHSYLTVYRFFIRNWDVI, -0.81 ± 0.55; under SALPDSTNRIASVGGISPGS, 0.489 ± 0.46. With DSLNCGSRCKSAGDSNRWSL, the amyloid nucleation score was 0.11 ± 0.65.

ARTICTFRHMSGIGAMGLDC: the amyloid nucleation score stood at 0.289 ± 0.8. Under FGLDLVFISFQARKCFVVMD stands “inactive”; under LAQNEHTLVFILLTNGKS, 3.18 ± 0.046; under YVVKIREIMVCSLVLDLRQR, 2.57 ± 0.069.

Regarding LLNALCMWMPM, the amyloid nucleation score worked out at 6.876 ± 0.051. The result for GCYTET reads 0.729 ± 0.52; that for NNFYKWGESCLN, -0.9 ± 0.76. The substance FCNDRTTVGD returned an amyloid nucleation score of -0.538 ± 0.39.

Take SYCSLVFLTDISSYIGFQCV: the amyloid nucleation score worked out at 5.16 ± 0.078.

The substance KVFLWIMLWAMPHTSSGFKP had an amyloid nucleation score of -0.305 ± 0.48. Under LGEYNINLMDGWEGRCRPVR stands 0.728 ± 0.43. With YFGTVHAILGFICLCLIIFQ, the amyloid nucleation score came to 3.66 ± 0.085. SYVGMFRTLDVKLRLNKCGY displayed an amyloid nucleation score of -0.038 ± 1.1. The result for CVSGNMYRLGVINW reads 0.156 ± 0.29; that for YFSKMS, -0.817 ± 0.43; that for WITVVRLIYLAFFQTGST, -0.867 ± 0.63. Under FWSGVTFSVLSYMSVSNMVP stands -0.979 ± 0.55; under LNCVFLSLSQTGGSCELDFV, 7.007 ± 0.043; under DGVCYSRVNYIPISMHVVYR, 4.87 ± 0.08. The result for LSGLEDMSISSNDYSSDVAR reads 0.45 ± 0.8; that for YSKTFTRRSWAHYTCHSVRL, 0.12 ± 0.41; that for CFLDGYWPGGELMKIGDYAL, 0.248 ± 0.28. In the case of LSMTEWVFSKGNRALAVYYM, the amyloid nucleation score was -1.39 ± 0.61. The result for LTCLLVRCSFVRCCVERPWS reads -0.732 ± 0.54. DSIGVVFEVKTGKARASGVV gave an amyloid nucleation score of 0.171 ± 0.49.

As to WSFDIAVTAR, the amyloid nucleation score result is “inactive”. Under INEFCATLQERRMCYLRMKL stands 0.921 ± 0.74; under HRTMHRTHSICGGVDQRELL, -0.538 ± 0.48; under TIATPHCVYDSCGCSVVSSV, 0.176 ± 0.56. Under GLCYKFVRFSYA stands 2.16 ± 0.1. The result for SISGMRWSSNHQVRSVLGAT reads 1.17 ± 0.33; that for LLDSPEWWYVLCATNWVYYM, 2.88 ± 0.096; that for IPLLCKFCSRGSRAKIYLMD, 1.75 ± 0.095. Take YIDRVTYRLSTGSTMEAWSA: the amyloid nucleation score stood at 0.688 ± 0.15. Regarding NVHYLGLVCRCALVFGTNML, the amyloid nucleation score result was “inactive”.

Take NSLNSMVYYEYFYFLVYVCG: the amyloid nucleation score is -0.015 ± 0.49.

QRLYFMIMSQPAFGTFRGIY displayed an amyloid nucleation score of -0.95 ± 1.1. The result for DVMYFGASLGTFVGVIADWE reads “inactive”; that for TGTAVG, 3.23 ± 0.073; that for NLKDYIAFHNMSTAV, 2.22 ± 0.1. As for ILRDVVDLQMHNTWRNRGDQ, the amyloid nucleation score was 3.66 ± 0.063.

Turning to GETLSTDYLWQPTHA, the amyloid nucleation score worked out at 0.877 ± 0.58.

In the case of LSCCYDDHRLQGRCGSGRFH, the amyloid nucleation score was 0.946 ± 0.27.

Substance TGLVFVLMCKSCQWFFREML had an amyloid nucleation score of -0.948 ± 0.42. ISVKDCLYPQLL came in with an amyloid nucleation score of -0.492 ± 1.

For GLGALVGVTLYRRTQQNMWG, the amyloid nucleation score amounted to 6.313 ± 0.056. Consider DSLKFSLRLVHLPLPIYGCC, for which the amyloid nucleation score amounted to 1.5 ± 0.43.

Regarding LYCILPLRL, the amyloid nucleation score result is “inactive”. NVLNGISKLMRHFALKYASM registered an amyloid nucleation score of 0.528 ± 0.4.
